# The nanobody polyreactivity screen of Harvey et al. (2022)
# Test: yeast display, Sf9 membrane polyspecificity reagent, FACS + sequencing; frameworks hold sequencing errors
# Procedure, shortened: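 Synthetic nanobody libraries on Saccharomyces cerevisiae BJ5465 were galactose-induced for 36–48 hours, stained 1 hour at 4 °C with 10% biotinylated, detergent-solubilized Sf9 membrane reagent and enriched on streptavidin microbeads. FACS then separated cells into low and high (top ~1%) gates by anti-HA (expression) and streptavidin (reagent binding) fluorescence. Genes were colony-PCR amplified, MiSeq 2 × 250 sequenced and CDR-length filtered. A clone's polyreactivity label is that of its gate of origin.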
row,Sequence,polyreactivity (PSR sort gate)
1,QVQLVESGGGLVQAGGSLRLSCAASGRTFRSNAMGWYRQAPGKERELVAAIRNSDGSTNYADSVKGRFTISRDNAKNTVYLQMNSLKPEDTAVYYCAASSTVGRITRILYYYWGQGTQVTVSS,high polyreactivity
2,QVQLVESGGGLVQAGGSLRLSCAASGRTFRSNGMGWYRQAPGKERQLVATISEGGGSTYYADSVKGRFTISRDNAKNTVYLQMNSLKPEDTAVYYCAATVYPSVYGENHYGYWGQGTQVTVSS,high polyreactivity
3,QVQLVESGGGLVQAGGSLRLSCAASGRTFRSNVMGWYRPAPGNERELVASITWSGGTTYYADSVKGRFTISRDNAKNTVYLQMNSLKPEDTAVYYCNAADERSQGWVGYDNWGQCTQVTVSS,low polyreactivity
4,QVQLVESGGGLVQAGGSLRLSCAASGRTFRSYAMGWYRQAPGKERELVAAIRRGGSTNYADSVKGRFTISRDNAKNTVYLQMNSLKPEDTAVYYCNARQTVRGPTDGRIAVWFDYWGQGTQVTVSS,high polyreactivity
5,QVQLVESGGGLVQAGGSLRLSCAASGRTFRSYAMGWYRQAPGKERELVAAISRRGGTTYYADSVKGRFTISRDNAKNTVYLQMNSLKPEDTAVYYCAATSYTYVLSPYRGDYWGQGTQVTVSS,high polyreactivity
6,QVQLVESGGGLVQAGGSLRLSCAASGRTFRSYAMGWYRQAPGKERELVASITSSGRTNYADSVKGRFTISRDNAKNTVYLQMNSLKPEDTAVYYCAAVRYYDYLSSWRYDYWGQGTQVTVSS,low polyreactivity
7,QVQLVESGGGLVQAGGSLRLSCAASGRTFRSYTMGWYRQAPGKERELVAAIRTSSGSTYYADSVKGRFTISRDNAKNTVYLQMNSLKPEDTAVYYCAKTLLYPWFRTVAVDYWGQGTQVTVSS,low polyreactivity
8,QVQLVESGGGLVQAGGSLRLSCAASGRTFRTYTMGWYRPAPGKERELVAAISKRGSSTYYADSVKGRFTISRDNAKNTVYLQMNSLKQEDTAVYYCAARSWLSNSPYGYWGQGTQVTVSS,high polyreactivity
9,QVQLVESGGGLVQAGGSLRLSCAASGRTFRTYTMGWYRQAHGKERELVAAITSTGSTYYADSVKGRFTISRDNAMNTVYLQMNSLKPEDTAVYYCNVGRRLRPYRCTRPNLEYYYWGQGTQVTVSS,high polyreactivity
10,QVQLVESGGGLVQAGGSLRLSCAASGRTFRTYTMGWYRQAPGKEREFGAAITSSGASTYYADSVKGRFTISRDNAKNTVYLPMNSLKPEETAVYYCAARYGRRLVWVPALLYDYWGQGTQVTVSS,high polyreactivity
11,QVQLVESGGGLVQAGGSLRLSCAASGRTFRVNSMGWYRPAPGKDRELVATIRWTGGSTYYADSVKGRFTISRDNAKNTVYLQMNSLKPEDTAVYYCAARIAVYHRGIGGYWGQGTQVTVSS,high polyreactivity
12,QVQLVESGGGLVQAGGSLRLSCAASGRTFRVYAMGWYRQAPGKERELVAAIRRSGGSTYYADSVKGRFTISRDNAKNTVYLQMNSLKPEDTAVYYCAAYFYYWGSTFVRYEYWGLGTQVTVSS,high polyreactivity
13,QVQLVESGGGLVQAGGSLRLSCAASGRTFRVYAMGWYRQAPGKERELVAAISGRGGSTYYADSVKGRFSISRDNAKNTVYFQMNSLKPEVTAVYYCAKSNPYLRLCEGNYWGQGTQVTVSS,high polyreactivity
14,QVQLVESGGGLVQAGGSLRLSCAASGRTFRVYARGWYRQAPGKERELVATITSSGGSTYYADSVKGRFTISRDNAKNTVYLQMNSLKPEDTAVYYCNVSVYYNYDSSYYYWGQGTQVTVSS,low polyreactivity
15,QVQLVESGGGLVQAGGSLRLSCAASGRTFRWNAMGWSRQAPGKERELVASISSGGRTNYADSVKGRFTLSRDNAKNTVYLQMNSLKPEDTAVYYCAKRVSWPQLYDYWGQGTQVTVSS,high polyreactivity
16,QVQLVESGGGLVQAGGSLRLSCAASGRTFRWNAMGWYRQAPGKERELVAAISSGGSTYYADSVKGRFTISRDNAKNTVYLQMNSLKPEDTAVYYCAKSSFKYRWSYPVISMDYWGQGTQVTVSS,high polyreactivity
17,QVQLVESGGGLVQAGGSLRLSCAASGRTFRWNAMVWYRQEPGKERELVARITSGGRTSYADSVKGRFTISRDNAKNTVYLQMNSLKPEDTAVYYCAARSIGYHWGYDYWGQGTQVTVSS,high polyreactivity
18,QVQLVESGGGLVQAGGSLRLSCAASGRTFRWYAMGWYRPAPAKERELVAAISSRGGSTYYADSVKGRFTISRDNAKNTVFLQMNSLKPEDTAVYYCAAVDNWLTLSDYDYWGQGTQVTVSS,low polyreactivity
19,QVQLVESGGGLVQAGGSLRLSCAASGRTFRWYAMGWYRQAPGKEMELVAALTFRGGRTYYADSVKGRFTISRDNAKNTVYLQMNSLKPEDTAVYYCNAVTYSSPYRFDYWGQGTQVTVSS,low polyreactivity
20,QVQLVESGGGLVQAGGSLRLSCAASGRTFRWYAMGWYRQAPGKERELVAAITSGGGTYYADSVKGRFTIARDNAKNTVYLQMNSLKPEDTAVYYCNKLHRDRYDYWGQGTQVTVSS,high polyreactivity
21,QVQLVESGGGLVQAGGSLRLSCAASGRTFRYNAMGSYRQAPGKERELVAAISGRGSSTYYADSVKGRFTISRDNAKNTVYLQMNSLKPEDTAVYYCAALPASVRRPGWHDYWGQGTQVTVSS,high polyreactivity
22,QVQLVESGGGLVQAGGSLRLSCAASGRTFRYNAMGWSRQAPGKERELVADITKSGGTTYYADSVKGRFTISRDNAKNTVYLQMNSLKPEDTAVYYCNAYRVVHPWEYDYWGQGTQVTVSS,high polyreactivity

row,Sequence,polyreactivity (PSR sort gate)
1,QVQLVESGGGLVQAGGSLRLSCAASGRTFRYNAMGWYRPAPGKERELVAAITKSGGTTYYADSVKGRFTISRDNAKNTVYLQMNSLKPEDTAVYYCNAYRVVHPWEYDYWGQGTQVTVSS,high polyreactivity
2,QVQLVESGGGLVQAGGSLRLSCAASGRTFRYNTMGCYRQAPGKERELVAAITKGAASTYYADSVKGRFTISRDNAKNTVYLQMNSLKPEDTAVYYCNAVYSRIVTQKYWGQGTQVTVSS,high polyreactivity
3,QVQLVESGGGLVQAGGSLRLSCAASGRTFRYYALGWYRQAPGKERELVAAITSSGDSTYYADSVKGRFTISRDNAKNTVYLQMHSLKQEDTAVYYCADGQPLFYDAEYGYWGQGTQVTVSS,low polyreactivity
4,QVQLVESGGGLVQAGGSLRLSCAASGRTFRYYAMGWYIQAPGKERELVATITGSGGSTYYADSVKGRFTISRDNAKNTVYLQMNSLKPEDTAVYYCNARKVRYPYRWYDYWGQGTQVTVSS,high polyreactivity
5,QVQLVESGGGLVQAGGSLRLSCAASGRTFRYYAMGWYRKAPGKERELVASIRGGGGTNYADSVKGRFTISRDNAKNTVYLQMNSLKPEDTAVYFCAASVGYSRVWLDYWGQGTQVTVSS,high polyreactivity
6,QVQLVESGGGLVQAGGSLRLSCAASGRTFRYYAMGWYRQAPGKERELVAAINRGGSTYYADSVKGRFTISRDNAKNTVYLQMNSLKPEDTAVYYCNTARGSKDPPHYYWGQGSQVTVSS,high polyreactivity
7,QVQLVESGGGLVQAGGSLRLSCAASGRTFRYYAMGWYRQAPGKERELVAAINWNGGRTYYADSVKGRFTISRDNAKNTVYLQMNSLKPEDTAVYYCAAYHYRSPVTGDYWGQGTQVTVSS,high polyreactivity
8,QVQLVESGGGLVQAGGSLRLSCAASGRTFRYYAMGWYRQAPGKERELVAAIRTSGSTNYADSVKGRFTISRDNAKNTVYLQMNSLKPEDTAVYYCAAQPYWRYPYRAERDYWGQGTQVTVSS,high polyreactivity
9,QVQLVESGGGLVQAGGSLRLSCAASGRTFRYYAMGWYRQAPGKERELVAAISVRTGSTSYADSVKGRFTISRDNAKNTVYLQMNSLKPEDTAVYYCNAPQPGKGRTRTRYYYWGQGTQVTVSS,high polyreactivity
10,QVQLVESGGGLVQAGGSLRLSCAASGRTFRYYAMGWYRQAPGKERELVAAISWDGARSYYADSVKGRFTISRDNAKNTVYLQMNSLKPEDTAVYYCAADFPGGTDRYYPMDYWGQGTQVTVSS,low polyreactivity
11,QVQLVESGGGLVQAGGSLRLSCAASGRTFRYYAMGWYRQAPGKERELVAAITSSGGSTYYADSVKGRFTISRDNAKNTVYLQMNSLKPEDTAVYYCNRTPYHAPWQDALYRYGYWGQGTQVTVSS,high polyreactivity
12,QVQLVESGGGLVQAGGSLRLSCAASGRTFRYYAMGWYRQAPGKERELVADISSTGRTYYADSVKGRFTISRDNAKNTVYLQMNSLKPEDTAVYYCNADYFFEFDYWGQGTQVTVSS,low polyreactivity
13,QVQLVESGGGLVQAGGSLRLSCAASGRTFRYYAMGWYRQAPGKERELVASITGSGGSTTYADSVKGRFTISRDNAKNTVYLQMNSLKPEDTAVYYCAVRYPYYSYRAKLGYWGQGTQVTVSS,high polyreactivity
14,QVQLVESGGGLVQAGGSLRLSCAASGRTFRYYAMGWYRQAPGKERELVASITKRGGSTYYADSVKGRFTISRDNAKNTVYLQMNSLKPEDTAVYYCNTRTGSFFQGYYWGQGTQVTVSS,high polyreactivity
15,QVQLVESGGGLVQAGGSLRLSCAASGRTFRYYAMGWYRQAPGKERELVASITSGGRTYYADSVKGRFTISRDNAKNTVYLQMNSLKPEDTAVYYCAASTRYEGNYWGQGTQVTVSS,high polyreactivity
16,QVQLVESGGGLVQAGGSLRLSCAASGRTFRYYAMGWYRQAPGKVRELVAAINWSGGSTYYADSVKGRFTISRDNAKNTVYLQMNSLKPEDTAVYYCAAVGHPSPPRTDLYYWGQGTQVTVSS,low polyreactivity
17,QVQLVESGGGLVQAGGSLRLSCAASGRTFRYYAMGWYRQEPGKERELVAVITSGASTYYADSVKGRFTISRDNAKNTVYLQMNCLKPEDTAVYYCNARYSWKYDSWGQGTQVTVSS,high polyreactivity
18,QVQLVESGGGLVQAGGSLRLSCAASGRTFRYYAMGWYRQPPGKERELVAAISISGGNTYYADSVKGRFTISRDNAKNTVYLQMNSLKPEDTAVYYCAAAGRGSGYDYWGQGTQVTVSS,high polyreactivity
19,QVQLVESGGGLVQAGGSLRLSCAASGRTFRYYTKGWSRQAPGKERELVADINTSVGSTDYADSVKGRFTISRDNAKNTVYLQMNSLKPEDTAVYYCAKVGFTYYAVDYWGQGTQVTVSS,high polyreactivity
20,QVQLVESGGGLVQAGGSLRLSCAASGRTFRYYVMGWYRQAPGKERELVADISRGGGRTRYADSVKGRFTISRDNAKNTVDLQMNSLKPEDTAVYYCAARSYTGQFGYWGQGTQVTVSS,high polyreactivity
21,QVQLVESGGGLVQAGGSLRLSCAASGRTFSAYAMGWYRQAPGKERELVAAISRRGGSTYYADSVKGRFTISRDNAKNTVYLQMNSLKPEDTAVYYCAADVYKQYGYYYWGQGTQVTVSS,high polyreactivity
